Assay results as given in paper PMC9597381, “Molecular determinants of TRAF6 binding specificity suggest that native interaction partners are not optimized for affinity” (Protein Science : A Publication of the Protein Society, 2022).
“And” between values parts separate entries of the source, which are not always exact repeats. Identical values can stand only once.

B1: CD40* peptide (KQEPQEIDF with 8 flanking CD40 residues on each side) displayed on E. coli via eCPX (peptide)
peptide: PTNKAPHPKQEPQEIDFPDDLPGSNT
notes: 9 residues resolved in PDB 1LB6 plus 8 flanking residues on each side; also called KQEPQEIDF (CD40*); not shown: eCPX (re-engineered OmpX), N-terminal, kept; FLAG, N-terminal, kept
B2: RNVPEEIYW (peptide)
chain: RNVPEEIYW
B3: HNIPTETSW (peptide)
chain: HNIPTETSW
B4: PQDPVETFW (peptide)
chain: PQDPVETFW
B5: GKYPEENDW (peptide)
chain: GKYPEENDW
B6: LQLPEENDW (peptide)
chain: LQLPEENDW
B7: TRMPVESDW (peptide)
chain: TRMPVESDW
B8: SPVPEESTW (peptide)
chain: SPVPEESTW
B9: MNAPVESDW (peptide)
chain: MNAPVESDW
B10: TYGPVENSW (peptide)
chain: TYGPVENSW
B11: QNLPTESDW (peptide)
chain: QNLPTESDW
B12: RNWPTETDW (peptide)
chain: RNWPTETDW
B13: TRAF6 monomeric MATH domain construct T6m (domain or fragment)
chain: NGIYIWKIGNFGMHLKCQEEEKPVVIHSPGFYTGKPGYKLCMRLHLQLPTAQRCANYISLFVHTMQGEYDSHLPWPFQGTIRLTILDQSEAPVRQNHEEIMDAKPELLAFQRPTIPRNPKGFGYVTFMHLEALRQRTFIKDDTLLVRCEVST
B14: TRAF6 trimeric construct T6cc (coiled-coil and MATH domains) (domain or fragment)
chain: DHQIRELTAKMETQSMYVSELKRTIRTLEDKVAEIEAQQCNGIYIWKIGNFGMHLKCQEEEKPVVIHSPGFYTGKPGYKLCMRLHLQLPTAQRCANYISLFVHTMQGEYDSHLPWPFQGTIRLTILDQSEAPVRQNHEEIMDAKPELLAFQRPTIPRNPKGFGYVTFMHLEALRQRTFIKDDTLLVRCEVSTRFD
modifications: biotin on the BAP tag

Biological target: RANK peptide (Homo sapiens)
Assay: ITC
Conditions: cited from earlier work

Row | Molecule | Kd [nM]
1 | TRAF6 (from UniProt Q9Y4K3) | 78000

Biological target: T1, monomeric TRAF6 (T6m), TRAF6 MATH domain (Homo sapiens, UniProt Q9Y4K3)
T1 construct: (human TRAF6 residues 350-501) – LE – HHHHHH; made in house; host or cells: E. coli Rosetta2(DE3)
T1 sequence (Q9Y4K3 350-501): B13 chain
Assay: Biolayer interferometry (BLI), SUMO-peptide on tip, TRAF6 monomer in solution
Conditions: biotinylated SUMO-peptide on streptavidin tip, T6m in solution up to 150 μM; 20 mM Tris pH 8.0, 207 mM NaCl; room temperature; steady-state fit; average of 3 replicate binding curves ± SEM
From the text: To further validate the cell‐surface interactions identified in the screen, we measured TRAF6‐peptide binding by biolayer interferometry (BLI), using purified monomeric TRAF6 MATH domain (construct termed T6m) in solution and purified peptides attached to the sensor tip (see Table S1 for construct details). […] The BLI data validate the cell‐surface display results and support the conclusion that top hits from the screen bind with higher affinity than CD40*, which is one of the tightest known TRAF6 peptide binders[19] (Figure 3). Based on these observations, we conclude that despite the screening assay being performed in the environment of the cell surface, and in a multi‐valent context, enrichment sorting returned high‐affinity binders.
Vectors, bacterial cells, and cloning: The expression constructs and cell surface display constructs are detailed in Table S1. The TRAF6 trimeric construct, here termed T6cc, consisted of residues 310–504 of human TRAF6 (including the MATH domain and coiled‐coil trimerization domain), an N‐terminal BAP tag for biotinylation, and a hexahistidine tag for purification. The construct was expressed using a pDW363 vector to ensure biotinylation. A monomeric TRAF6 construct lacking the trimerization domain and BAP tag, here termed T6m, consisted of residues 350–501 of human TRAF6 and a hexahistidine tag. The construct was expressed in a pDW363 vector, although the lack of a BAP tag ensured no biotinylation of this protein. SUMO‐peptide fusion constructs contained a BAP tag, hexahistidine tag, and SUMO tag. The construct was expressed in a pDW363 vector to ensure biotinylation. E. coli strains BL21(DE3), DH5α, and MC1061 were used for protein expression, cloning, and surface display, respectively. For bacterial surface display of TRAF6‐binding peptides, the eCPX vector designed by the Daugherty group[56] was modified at the C‐terminus to append a FLAG sequence, a linker containing a SfiI site, and the CD40* peptide sequence, which included 9 residues resolved in the X‐ray structure of CD40* bound to TRAF6 (PDB ID: 1LB6[19]) plus 8 flanking residues on each side of this core region. The CD40*‐derived sequence used was […].
Protein purification and preparation: T6cc was co‐expressed with the biotin ligase BirA (from the pDW363 vector) in BL21(DE3) E. coli for 5 hours at 37°C. Media was supplemented with 0.05 mM D‐(+)‐biotin. The protein was then purified using Ni^2+‐NTA affinity chromatography followed by gel‐filtration chromatography into a final buffer of 20 mM Tris pH 8.0, 150 mM NaCl, 5% glycerol, 1 mM DTT. Purified protein was concentrated before storing at −80°C in aliquots for later use. Concentrations of T6cc are reported as monomer concentrations. […]

Row | Molecule | Kd [nM]
2 | RNVPEESDW | 24000 ± 3800
3 | KQEPQEIDF [CD40*, reference compound] | 240000 ± 23000
4 | LNLPEESDW | 27500
5 | TNWPEENDW | 37200

Biological target: T2, TRAF6 trimeric construct T6cc (coiled-coil and MATH domains) (human, UniProt Q9Y4K3 310-504, biotin on the BAP tag)
T2 construct: human TRAF6, residues 310-504, including the coiled-coil trimerization domain and the MATH domain; Expressed from a pDW363 vector; Concentrations of T6cc are reported as monomer concentrations; also called trimeric TRAF6; biotinylated TRAF6 homotrimers; source: E. coli BL21(DE3), co-expressed with BirA, purified (Ni-NTA, gel filtration); not shown: BAP tag, N-terminal, kept
T2 sequence (looked up): B14 chain
Assay: flow cytometry on cells; single-clone titration: biotinylated T6cc (0 nM to 3 uM, eight concentrations) on peptide-displaying E. coli, 4°C 60 min in PBS + BSA, detected with streptavidin-PE; apparent cell-surface constant Kd*, multivalent, not likely at equilibrium
Conditions: one partner purified

Row | Molecule | Kd [nM]
6 | B1 | 1200

Biological target: TRAF6
Assay: not given
Conditions: reported affinity for TRAF6, ITC; read-out: Kd by isothermal titration calorimetry; cited from earlier work
From the text: High‐affinity TRAF6 binders isolated in this work can serve as lead peptides for inhibitor development. TRAF6 signaling is implicated in inflammation and cardiovascular disease.[12], [13], [18] Targeting TRAF6 MATH is reported to improve insulin sensitivity in obese mice, improve heart function in mouse models of non‐ischemic cardiac failure, reduce atherosclerosis, and inhibit osteoclastogenesis and bone resorption.[14], [15], [16], [17] A RANK peptide attached to a protein transduction sequence to promote cell entry is currently sold commercially as a TRAF6 inhibitor (e.g., Novus Biologicals ...

Row | Molecule | Kd [nM]
7 | KQEPQEIDF [CD40*, reference compound] | 84000

Biological target: T3, TRAF6 trimeric construct T6cc (coiled-coil and MATH domains) (human, UniProt Q9Y4K3 310-504, biotin on the BAP tag)
T3 chain: B14 chain
Assay: FACS
Conditions: not given

Row | Molecule | Kd [nM]
8 | B2 | 260
9 | B3 | 186
10 | B4 | 374
11 | B5 | 240
12 | B6 | 498
13 | B7 | 169
14 | B8 | 332
15 | B9 | 110
16 | B10 | 581
17 | B11 | 45.2
18 | B12 | 58.3

Biological target: biotinylated SUMO-peptide fusion of CD40* (…) (human)
Assay: BLI; biotinylated SUMO-peptides immobilised on streptavidin tips, T6m in solution; room temperature; 20 mM Tris pH 8.0, 207 mM NaCl, 1 mM DTT, 1% glycerol, 0.1% BSA, 0.1% Tween-20; steady-state fit, SUMO-only control subtracted
Conditions: not given

Row | Molecule | Kd [nM]
19 | B13 | 240000

Biological target: biotinylated SUMO-peptide fusion of …
Assay: as above
Conditions: not given

Row | Molecule | Kd
20 | B13 | 37000 nM and 28000 nM and 24000 nM

Biological target: T3, TRAF6 trimeric construct T6cc …
Assay: FACS; apparent Kd*, cell-surface display
Conditions: not given

Row | Molecule | Kd [nM]
21 | B2 | 260
22 | B3 | 186
23 | B4 | 374
24 | B5 | 240
25 | B6 | 498
26 | B7 | 169
27 | B8 | 332
28 | B9 | 110
29 | B10 | 581
30 | B11 | 45.2
31 | B12 | 58.3

Biological target: … peptide displayed on E. coli via eCPX (human)
Assay: flow cytometry on cells; single-clone titration: biotinylated T6cc (0 nM to 3 uM, eight concentrations) on peptide-displaying E. coli, 4°C 60 min in PBS + BSA, detected with streptavidin-PE; apparent cell-surface constant Kd*, multivalent, not likely at equilibrium
Conditions: not given

Row | Molecule | Kd
32 | B14 | 84 nM and 46 nM and 31 nM
